{"source": "IntAct's records for PubMed 16229834", "parents": {"B1": {"name": "PRKC apoptosis WT1 regulator protein (Rattus norvegicus (Rat)), Q62627 (parent)", "chain": "MATGGYRSSGSTTDFLEEWKAKREKMRAKQNPVGPGSSGGDPAAKSPAGPLAQTTAAGTSELNHGPAGAAAPAAPGPGALNCAHGSSALPRGAPGSRRPEDECPIAAGAAGAPASRGDEEEPDSAPEKGRSSGPSARKGKGQIEKRKLREKRRSTGVVNIPAAECLDEYEDDEAGQKERKREDAITQQNTIQNEAASLPDPGTSYLPQDPSRTVPGRYKSTISAPEEEILNRYPRTDRSGFSRHNRDTSAPANFASSSTLEKRIEDLEKEVLRERQENLRLTRLMQDKEEMIGKLKEEIDLLNRDLDDMEDENEQLKQENKTLLKVVGQLTR", "partner": "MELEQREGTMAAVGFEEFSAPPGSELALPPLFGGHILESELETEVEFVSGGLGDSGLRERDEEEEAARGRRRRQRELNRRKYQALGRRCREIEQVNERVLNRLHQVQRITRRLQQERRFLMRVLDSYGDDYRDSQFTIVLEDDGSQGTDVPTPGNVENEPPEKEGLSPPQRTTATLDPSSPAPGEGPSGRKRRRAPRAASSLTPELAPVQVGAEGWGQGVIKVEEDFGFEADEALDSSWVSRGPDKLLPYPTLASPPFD"}}}
{"variants_of": "B1", "details": "with tfpt_rat Tfpt"}
{"variant": "MATGGYRSSGSTTDFLEEWKAKREKMRAKQNPVGPGSSGGDPAAKSPAGPLAQTTAAGTSELNHGPAGAAAPAAPGPGALNCAHGSSALPRGAPGSRRPEDECPIAAGAAGAPASRGDEEEPDSAPEKGRSSGPSARKGKGQIEKRKLREKRRSTGVVNIPAAECLDEYEDDEAGQKERKREDAITQQNTIQNEAASLPDPGTSYLPQDPSRTVPGRYKSTISAPEEEILNRYPRTDRSGFSRHNRDTSAPANFASSSTLEKRIEDLEKEVLRERQENLRLTRLMQDKEEMIGKAKEEIDLLNRDLDDMEDENEQAKQENKTLLKVVGQATR", "note": "[L295A;L316A;L330A]", "effect of a mutation on the interaction": "disrupting interaction"}
